Results as given in patent US20110245145.

System: HA-βarrestin2 1-185

endogenous Src of Hep3B hepatocytes
insulin-stimulated phosphorylations of Akt, GSK3P, and Foxo1: markedly reduced in the presence of βarrestin2 1-185
